The supplement of paper PMC10724198
± gives the standard deviation of the averaged measurements.

How the values were obtained:
Saccharomyces cerevisiae [1] = assay: protein stability index of tFT-peptide fusion (C-terminal peptide) (PSI (0-1 scale)); higher = more stable (slower turnover)
Description: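 MPS profiling in S. cerevisiae of the tFT-X12 degron library: putative degron peptides plus stable controls, 12 aa, fused to the C-terminus of a sfGFP-mCherry timer. Cells are FACS-sorted into 8 mCherry/sfGFP bins and deep-sequenced. PSI runs from 0 (unstable) to 1 (stable). Backgrounds are wild type, das1Δ and doa10Δ at 30 °C, and wild type, das1Δ, cdc34-1 and cdc53-1 at 37 °C; 2-3 technical replicates each.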

Saccharomyces cerevisiae [2] = assay: as above; details: genetic background: wild type; temperature: 30 C
[3] = genetic background: cdc34-1, temperature: 37 C
[4] = genetic background: cdc53-1, temperature: 37 C
[5] = genetic background: das1 deletion, temperature: 30 C
[6] = genetic background: das1 deletion, temperature: 37 C
[7] = genetic background: doa10 deletion, temperature: 30 C
[8] = genetic background: wild type, temperature: 30 C
[9] = genetic background: wild type, temperature: 37 C
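Note: PSI is a weighted mean of sequencing reads over stability bins, variants kept only with over 10 reads, mCherry proximal and sfGFP distal, peptide attached via GGGS linker.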

Row | Sequence | protein stability index (Saccharomyces cerevisiae [1]; [3]) | protein stability index (Saccharomyces cerevisiae [1]; [4]) | protein stability index (Saccharomyces cerevisiae [1]; [5]) | protein stability index (Saccharomyces cerevisiae [1]; [6]) | protein stability index (Saccharomyces cerevisiae [1]; [7]) | protein stability index (Saccharomyces cerevisiae [1]; [8]) | protein stability index (Saccharomyces cerevisiae [1]; [9]) | protein stability index (Saccharomyces cerevisiae [2])
1 | VFRECSFFLVCC | 0.255 ± 0.0076 | 0.287 ± 0.011 | 0.281 ± 0.026 | 0.366 ± 0.0094 | 0.224 ± 0.0033 | 0.252 ± 0.032 | 0.315 ± 0.016 | 0.333 ± 0.036
2 | CCVLGDRCIGSD | 0.699 ± 0.018 | 0.735 ± 0.011 | 0.635 ± 0.013 | 0.76 ± 0.019 | 0.631 ± 0.013 | 0.655 ± 0.022 | 0.718 ± 0.013 | 0.678 ± 0.057
3 | CLRFVFWFVCFV | 0.227 ± 0.047 | 0.238 ± 0.0095 | 0.254 ± 0.03 | 0.351 ± 0.0079 | 0.268 ± 0.0087 | 0.186 ± 0.01 | 0.231 ± 0.018 | 0.27 ± 0.087
4 | GAVRRWGWVSFV | 0.633 ± 0.052 | 0.7476 ± 0.0049 | 0.6425 ± 0.0039 | 0.744 ± 0.013 | 0.173 ± 0.0068 | 0.193 ± 0.0085 | 0.393 ± 0.004 | 0.331 ± 0.044
5 | YLFDQYDWYKSM | 0.643 ± 0.063 | 0.7663 ± 0.007 | 0.666 ± 0.041 | 0.8049 ± 0.0067 | 0.156 ± 0.0072 | 0.162 ± 0.027 | 0.348 ± 0.02 | 0.368 ± 0.081
6 | PFAGRLWVTSSF | 0.707 ± 0.052 | 0.7726 ± 0.005 | 0.671 ± 0.011 | 0.7908 ± 0.0063 | 0.685 ± 0.021 | 0.674 ± 0.022 | 0.7558 ± 0.0072 | 0.752 ± 0.035
7 | LTIYPLTYCFVS | 0.629 ± 0.051 | 0.704 ± 0.046 | 0.562 ± 0.025 | 0.657 ± 0.058 | 0.45336 ± 0.00045 | 0.44 ± 0.023 | 0.568 ± 0.025 | 0.502 ± 0.035
8 | LPNLPPTSPERH | 0.638 ± 0.0034 | 0.734 ± 0.015 | 0.652 ± 0.021 | 0.7046 ± 0.0062 | 0.6558 ± 0.0059 | 0.659 ± 0.015 | 0.703 ± 0.0097 | 0.663 ± 0.33
9 | LAVRSGFPFGLF | 0.642 ± 0.034 | 0.757 ± 0.013 | 0.674 ± 0.012 | 0.783 ± 0.036 | 0.117 ± 0.017 | 0.122 ± 0.03 | 0.224 ± 0.014 | 0.249 ± 0.0026
10 | WCLLGVPVRVVV | 0.373 ± 0.014 | 0.391 ± 0.056 | 0.307 ± 0.042 | 0.462 ± 0.0047 | 0.253 ± 0.0041 | 0.288 ± 0.042 | 0.441 ± 0.0045 | 0.425 ± 0.033
11 | FFFCFFIFCFSL | 0.327 ± 0.005 | 0.409 ± 0.025 | 0.333 ± 0.026 | 0.463 ± 0.013 | 0.335 ± 0.046 | 0.324 ± 0.015 | 0.396 ± 0.036 | 0.3698 ± 0.0032
12 | PPPPPPLPSSFP | 0.679 ± 0.024 | 0.749 ± 0.0084 | 0.645 ± 0.009 | 0.7094 ± 0.0028 | 0.666 ± 0.033 | 0.655 ± 0.01 | 0.7063 ± 0.0068 | 0.449 ± 0.026
13 | LLLLASLFFRLA | 0.522 ± 0.023 | 0.595 ± 0.01 | 0.467 ± 0.031 | 0.614 ± 0.03 | 0.177 ± 0.011 | 0.194 ± 0.015 | 0.37 ± 0.028 | 0.3 ± 0.016
14 | YFRKDYRKMAQH | 0.594 ± 0.049 | 0.74478 ± 0.00072 | 0.669 ± 0.06 | 0.7429 ± 0.0026 | 0.17256 ± 0.00013 | 0.163 ± 0.046 | 0.453 ± 0.055 | 0.255 ± 0.15
15 | WYAGIVFTRVWM | 0.54 ± 0.01 | 0.611 ± 0.026 | 0.487 ± 0.015 | 0.654 ± 0.03 | 0.466 ± 0.015 | 0.482 ± 0.02 | 0.622 ± 0.013 | 0.5 ± 0.0095
16 | LLCLAVVLWFVV | 0.216 ± 0.035 | 0.338 ± 0.019 | 0.239 ± 0.031 | 0.4051 ± 0.0011 | 0.212 ± 0.012 | 0.241 ± 0.024 | 0.3362 ± 0.0005 | 0.307 ± 0.03
17 | ISATYSYIPVVG | 0.502 ± 0.0071 | 0.496 ± 0.011 | 0.346 ± 0.024 | 0.541 ± 0.012 | 0.32388 ± 3.1e-05 | 0.378 ± 0.023 | 0.507 ± 0.0073 | 0.455 ± 0.038
18 | FVLLCVLEFVAG | 0.104 ± 0.027 | 0.166 ± 0.011 | 0.173 ± 0.025 | 0.299 ± 0.0013 | 0.131 ± 0.004 | 0.151 ± 0.036 | 0.253 ± 0.0087 | 0.27 ± 0.008
19 | FLIFGMVDFAVV | 0.247 ± 0.035 | 0.3554 ± 0.0029 | 0.231 ± 0.04 | 0.3883 ± 0.0012 | 0.202 ± 0.0019 | 0.226 ± 0.019 | 0.387 ± 0.035 | 0.331 ± 0.018
20 | LCLLHCSICISF | 0.352 ± 0.026 | 0.4113 ± 0.0012 | 0.301 ± 0.027 | 0.44881 ± 0.00028 | 0.285 ± 0.015 | 0.295 ± 0.036 | 0.4142 ± 0.0008 | 0.388 ± 0.014
21 | GCLVVVGFFSVF | 0.214 ± 0.049 | 0.416 ± 0.041 | 0.255 ± 0.028 | 0.458 ± 0.028 | 0.2 ± 0.011 | 0.241 ± 0.0093 | 0.409 ± 0.018 | 0.326 ± 0.033
22 | LFRFSRLFLFVL | 0.36 ± 0.034 | 0.446 ± 0.11 | 0.578 ± 0.0093 | 0.74 ± 0.028 | 0.214 ± 0.042 | 0.153 ± 0.034 | 0.201 ± 0.017 | 0.207 ± 0.061
23 | LRALGPRIYRIS | 0.661 ± 0.076 | 0.747 ± 0.025 | 0.645 ± 0.015 | 0.747 ± 0.016 | 0.194 ± 0.0089 | 0.199 ± 0.012 | 0.417 ± 0.016 | 0.317 ± 0.035
24 | SPRSIALLHLFS | 0.648 ± 0.063 | 0.708 ± 0.051 | 0.655 ± 0.02 | 0.705 ± 0.062 | 0.154 ± 0.017 | 0.213 ± 0.031 | 0.327 ± 0.024 | 0.3 ± 0.044
25 | PRPSPPLPPPSS | 0.665 ± 0.082 | 0.712 ± 0.011 | 0.643 ± 0.027 | 0.739 ± 0.019 | 0.673 ± 0.032 | 0.677 ± 0.021 | 0.688 ± 0.017 | 0.4726 ± 0.0028
26 | SVVVLHVHVRPP | 0.618 ± 0.035 | 0.692 ± 0.018 | 0.5839 ± 0.0056 | 0.63 ± 0.011 | 0.593 ± 0.044 | 0.582 ± 0.024 | 0.6287 ± 0.0031 | 0.517 ± 0.12
27 | FCLFMFVPLLPL | 0.531 ± 0.032 | 0.589 ± 0.013 | 0.455 ± 0.036 | 0.5868 ± 0.0043 | 0.4421 ± 0.0041 | 0.452 ± 0.027 | 0.5642 ± 0.003 | 0.453 ± 0.052
28 | GRVYLLGLYMSF | 0.453 ± 0.041 | 0.485 ± 0.026 | 0.306 ± 0.083 | 0.525 ± 0.064 | 0.3887 ± 0.0029 | 0.338 ± 0.026 | 0.481 ± 0.037 | 0.373 ± 0.0094
29 | SSAFFFLLFSLA | 0.4227 ± 0.003 | 0.484 ± 0.006 | 0.342 ± 0.031 | 0.511 ± 0.009 | 0.244 ± 0.0068 | 0.266 ± 0.037 | 0.446 ± 0.0051 | 0.366 ± 0.013
30 | DVRLVLCEMIKG | 0.587 ± 0.048 | 0.6123 ± 0.0027 | 0.414 ± 0.028 | 0.624 ± 0.0012 | 0.394 ± 0.021 | 0.426 ± 0.021 | 0.601 ± 0.0076 | 0.513 ± 0.036
